The target in data set [1] is LXRa:RXRa (Homo sapiens, UniProt Q13133;P19793 full;full). The data set can be described thus: no ligand; PBM; 270 nM : 90 nM RXRa; PBS pH 7.4, 2% milk, 0.02% Triton X-100, 1 mM DTT, BSA, 0.4 mg/ml salmon testes DNA. The note with it: tags: His kept;His cleaved; copies: 1;1; label: surface-attached array probe. In a few lines:
(§1)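 Probes were double-stranded and carried 34-nt variable regions with direct-repeat seeds, single-nucleotide variants, half-site ablations and random human genomic background sequences, printed on custom Agilent 4×180K protein-binding microarrays. Arrays were incubated 1 h with ligand-free nuclear receptor dimers in PBS pH 7.4, 2% milk, 0.02% Triton X-100, 1 mM DTT, 0.2 mg/mL BSA and 0.4 mg/ml salmon testes DNA. Antibodies against each partner (one per run) detected binding, and scanned fluorescence was regression-normalized. Binding z-scores use the random background probes as reference.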

The target of data set [2] is THRa:RXRa (Homo sapiens, UniProt P10827;P19793 full;full). In words: no ligand; PBM; 90 nM : 90 nM RXRa; PBS pH 7.4, 2% milk, 0.02% Triton X-100, 1 mM DTT, BSA, 0.4 mg/ml salmon testes DNA. The note with it: tags: His kept;His cleaved; copies: 1;1; label: surface-attached array probe.
The target of data set [3] is FXR:RXRa (Homo sapiens, UniProt Q96RI1;P19793 full;full). In words: no ligand; PBM; 270 nM : 90 nM RXRa; PBS pH 7.4, 2% milk, 0.02% Triton X-100, 1 mM DTT, BSA, 0.4 mg/ml salmon testes DNA. The note with it: tags: His kept;His cleaved; copies: 1;1; label: surface-attached array probe. The procedure, abridged:
as §1

The target in data set [4] is PPARa:RXRa (Homo sapiens, UniProt Q07869;P19793 full;full). The data set is described as above. The note with it: tags: GST kept;His cleaved; copies: 1;1; label: surface-attached array probe. In a few lines: as §1
The target of data set [5] is LXRb:RXRa (Homo sapiens, UniProt P55055;P19793 full;full). The data set is described as above. The note with it: tags: His kept;His cleaved; copies: 1;1; label: surface-attached array probe. The procedure, abridged: as §1
Data set [6] addresses RARg:RXRa (Homo sapiens, UniProt P13631;P19793 full;full). The description is as above. The note with it: tags: His kept;His cleaved; copies: 1;1; label: surface-attached array probe. In a few lines:
as §1

The target of data set [7] is RXRa (Homo sapiens, UniProt P19793). The data set can be described thus: no ligand; PBM; 180 nM; PBS pH 7.4, 2% milk, 0.02% Triton X-100, 1 mM DTT, BSA, 0.4 mg/ml salmon testes DNA. The note with it: tags: His cleaved; chain copies: 2; label: surface-attached array probe.
For data set [8], the target named is RARb:RXRa (Homo sapiens, UniProt P10826;P19793 full;full). In words: no ligand; PBM; 270 nM : 90 nM RXRa; PBS pH 7.4, 2% milk, 0.02% Triton X-100, 1 mM DTT, BSA, 0.4 mg/ml salmon testes DNA. The note with it: tags: His kept;His cleaved; copies: 1;1; label: surface-attached array probe. The procedure, abridged:
as §1

LXRa:RXRa, sequence (Q13133 whole entry, chain 1 of 2): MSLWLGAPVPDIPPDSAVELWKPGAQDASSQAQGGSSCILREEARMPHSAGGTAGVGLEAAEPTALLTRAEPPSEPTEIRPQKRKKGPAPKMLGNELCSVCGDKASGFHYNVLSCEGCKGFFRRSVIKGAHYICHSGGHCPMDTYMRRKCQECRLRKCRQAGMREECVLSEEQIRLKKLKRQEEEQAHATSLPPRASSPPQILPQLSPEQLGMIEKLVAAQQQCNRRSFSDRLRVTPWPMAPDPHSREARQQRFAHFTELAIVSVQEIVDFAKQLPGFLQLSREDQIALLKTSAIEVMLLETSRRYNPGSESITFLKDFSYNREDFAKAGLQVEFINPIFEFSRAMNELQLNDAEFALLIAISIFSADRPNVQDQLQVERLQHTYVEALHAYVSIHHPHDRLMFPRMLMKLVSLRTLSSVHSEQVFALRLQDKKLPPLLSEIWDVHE
LXRa:RXRa, sequence (P19793 whole entry, chain 2 of 2): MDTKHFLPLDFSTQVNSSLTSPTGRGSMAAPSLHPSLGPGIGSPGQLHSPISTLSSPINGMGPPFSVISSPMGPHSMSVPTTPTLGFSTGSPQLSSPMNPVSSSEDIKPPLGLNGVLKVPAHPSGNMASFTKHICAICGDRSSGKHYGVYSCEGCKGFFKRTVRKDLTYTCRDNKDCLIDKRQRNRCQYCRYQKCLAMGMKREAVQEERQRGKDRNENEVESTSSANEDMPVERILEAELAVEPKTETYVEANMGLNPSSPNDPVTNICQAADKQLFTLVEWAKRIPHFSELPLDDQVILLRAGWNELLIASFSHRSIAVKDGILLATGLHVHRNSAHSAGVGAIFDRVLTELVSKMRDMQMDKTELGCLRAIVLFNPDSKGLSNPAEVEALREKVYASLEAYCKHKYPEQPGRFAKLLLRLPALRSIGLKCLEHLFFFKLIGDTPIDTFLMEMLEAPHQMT
THRa:RXRa, sequence (P10827 other isoform, or with tags, fused parts or gaps, chain 1 of 2): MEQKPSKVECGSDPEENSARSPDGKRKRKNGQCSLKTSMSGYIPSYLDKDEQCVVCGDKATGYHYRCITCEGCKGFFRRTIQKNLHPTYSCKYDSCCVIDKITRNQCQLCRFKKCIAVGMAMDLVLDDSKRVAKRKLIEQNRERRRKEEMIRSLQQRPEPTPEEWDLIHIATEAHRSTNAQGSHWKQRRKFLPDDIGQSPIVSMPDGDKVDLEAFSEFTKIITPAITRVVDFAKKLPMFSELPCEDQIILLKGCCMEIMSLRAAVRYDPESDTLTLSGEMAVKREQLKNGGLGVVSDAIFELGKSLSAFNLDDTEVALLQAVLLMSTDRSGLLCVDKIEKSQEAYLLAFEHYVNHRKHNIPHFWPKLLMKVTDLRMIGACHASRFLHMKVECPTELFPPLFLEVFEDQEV
THRa:RXRa, sequence (P19793 whole entry, chain 2 of 2): as the sequence (P19793 whole entry, chain 2 of 2) above
RARg:RXRa, sequence (P13631 whole entry, chain 1 of 2): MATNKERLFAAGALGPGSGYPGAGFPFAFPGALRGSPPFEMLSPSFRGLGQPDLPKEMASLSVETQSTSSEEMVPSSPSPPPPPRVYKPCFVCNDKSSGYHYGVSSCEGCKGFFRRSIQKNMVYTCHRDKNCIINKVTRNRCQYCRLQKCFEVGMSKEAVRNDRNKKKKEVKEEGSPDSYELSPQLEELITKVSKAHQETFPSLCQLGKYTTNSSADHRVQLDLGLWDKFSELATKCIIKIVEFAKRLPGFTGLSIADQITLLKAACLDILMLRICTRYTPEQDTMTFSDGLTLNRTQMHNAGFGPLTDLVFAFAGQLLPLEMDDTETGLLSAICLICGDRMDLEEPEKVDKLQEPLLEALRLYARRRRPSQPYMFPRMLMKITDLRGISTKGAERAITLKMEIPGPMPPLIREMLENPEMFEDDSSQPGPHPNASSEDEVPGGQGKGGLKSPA
RARg:RXRa, sequence (P19793 whole entry, chain 2 of 2): as the sequence (P19793 whole entry, chain 2 of 2) above
LXRb:RXRa, sequence (P55055 whole entry, chain 1 of 2): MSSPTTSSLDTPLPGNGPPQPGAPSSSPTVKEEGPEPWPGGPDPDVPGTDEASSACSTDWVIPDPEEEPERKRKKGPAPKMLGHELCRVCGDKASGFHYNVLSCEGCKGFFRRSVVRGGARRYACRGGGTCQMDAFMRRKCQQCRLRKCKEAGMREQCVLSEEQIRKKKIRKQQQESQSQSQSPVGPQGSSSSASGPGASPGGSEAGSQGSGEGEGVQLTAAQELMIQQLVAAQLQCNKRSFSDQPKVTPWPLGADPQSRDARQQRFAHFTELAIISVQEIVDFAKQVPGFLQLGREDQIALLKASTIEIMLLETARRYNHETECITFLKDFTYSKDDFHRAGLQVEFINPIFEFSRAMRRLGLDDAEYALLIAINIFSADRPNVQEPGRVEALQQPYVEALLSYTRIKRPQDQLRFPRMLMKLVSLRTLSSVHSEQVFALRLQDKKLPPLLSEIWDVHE
LXRb:RXRa, sequence (P19793 whole entry, chain 2 of 2): as the sequence (P19793 whole entry, chain 2 of 2) above
PPARa:RXRa, sequence (Q07869 whole entry, chain 1 of 2): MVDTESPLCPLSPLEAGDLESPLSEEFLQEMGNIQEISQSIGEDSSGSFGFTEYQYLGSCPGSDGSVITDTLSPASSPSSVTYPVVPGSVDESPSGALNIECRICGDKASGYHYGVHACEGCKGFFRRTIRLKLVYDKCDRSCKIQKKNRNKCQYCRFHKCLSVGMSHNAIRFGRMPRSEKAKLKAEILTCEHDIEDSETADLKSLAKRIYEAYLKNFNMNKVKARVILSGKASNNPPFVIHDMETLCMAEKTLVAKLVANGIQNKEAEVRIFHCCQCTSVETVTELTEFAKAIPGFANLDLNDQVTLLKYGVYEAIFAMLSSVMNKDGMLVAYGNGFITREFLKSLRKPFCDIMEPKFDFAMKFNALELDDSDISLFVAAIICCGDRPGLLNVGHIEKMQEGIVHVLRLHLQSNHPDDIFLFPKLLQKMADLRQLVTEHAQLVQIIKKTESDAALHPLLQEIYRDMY
PPARa:RXRa, sequence (P19793 whole entry, chain 2 of 2): as the sequence (P19793 whole entry, chain 2 of 2) above
RXRa, sequence (P19793 whole entry): as the sequence (P19793 whole entry, chain 2 of 2) above
RARb:RXRa, sequence (P10826 whole entry, chain 1 of 2): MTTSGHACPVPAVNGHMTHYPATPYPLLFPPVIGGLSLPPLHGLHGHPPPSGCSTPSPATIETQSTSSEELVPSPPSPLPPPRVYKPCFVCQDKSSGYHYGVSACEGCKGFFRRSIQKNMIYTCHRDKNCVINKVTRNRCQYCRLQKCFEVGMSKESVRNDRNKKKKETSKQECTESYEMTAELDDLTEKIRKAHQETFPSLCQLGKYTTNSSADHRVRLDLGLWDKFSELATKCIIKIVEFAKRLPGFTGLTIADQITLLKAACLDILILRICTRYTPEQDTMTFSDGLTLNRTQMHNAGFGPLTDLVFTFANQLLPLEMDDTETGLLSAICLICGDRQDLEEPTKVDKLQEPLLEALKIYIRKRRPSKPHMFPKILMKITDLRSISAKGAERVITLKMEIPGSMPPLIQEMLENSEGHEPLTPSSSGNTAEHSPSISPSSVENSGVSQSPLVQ
RARb:RXRa, sequence (P19793 whole entry, chain 2 of 2): as the sequence (P19793 whole entry, chain 2 of 2) above
FXR:RXRa, sequence (Q96RI1 whole entry, chain 1 of 2): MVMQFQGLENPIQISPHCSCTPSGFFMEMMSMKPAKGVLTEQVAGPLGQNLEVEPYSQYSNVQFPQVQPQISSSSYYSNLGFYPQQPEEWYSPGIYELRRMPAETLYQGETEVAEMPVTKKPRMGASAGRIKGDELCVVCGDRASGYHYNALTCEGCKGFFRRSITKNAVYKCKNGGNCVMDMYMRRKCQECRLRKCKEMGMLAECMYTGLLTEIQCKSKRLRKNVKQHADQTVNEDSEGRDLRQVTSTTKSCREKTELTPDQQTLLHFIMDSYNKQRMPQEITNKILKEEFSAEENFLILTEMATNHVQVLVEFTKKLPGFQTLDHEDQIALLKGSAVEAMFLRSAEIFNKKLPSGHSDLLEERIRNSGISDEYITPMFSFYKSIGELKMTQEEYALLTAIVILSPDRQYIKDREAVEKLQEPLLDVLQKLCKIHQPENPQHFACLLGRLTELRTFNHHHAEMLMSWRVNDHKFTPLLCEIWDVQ
FXR:RXRa, sequence (P19793 whole entry, chain 2 of 2): as the sequence (P19793 whole entry, chain 2 of 2) above

B1: NRC3_wobSeed103_DR4_G23C_o1 (dsDNA)
DNA 1: GCGCATATAGGTAATACAAGGTCAAAGTCCGATTGTGCGATTGACAGCGTAGAATGAAGG
DNA 2: CCTTCATTCTACGCTGTCAATCGCACAATCGGACTTTGACCTTGTATTACCTATATGCGC
With B1, the binding signal was 7 PBM z-score against 500 random probes in data set [1] and 4.92 PBM z-score against 500 random probes in data set [2].

B2: NRC3_random_hg19_176_o1 (dsDNA)
DNA 1: GCCTGCCTGTGTTGGGACTTTGACTCCACATTTCCCGCGATTGACAGCGTAGAATGAAGG
DNA 2: CCTTCATTCTACGCTGTCAATCGCGGGAAATGTGGAGTCAAAGTCCCAACACAGGCAGGC
Consider B2, for which the binding signal in data set [3] was -0.18 PBM z-score against 500 random probes; in data set [1] it was -0.07 PBM z-score against 500 random probes; in data set [4], 0 PBM z-score against 500 random probes; in data set [2] it was -0.11 PBM z-score against 500 random probes.

B3: NRC3_wobSeed37_DR1_G22A_o1 (dsDNA)
DNA 1: GCCGTCCAAGGTCAAAGGTCAATGAAGAGATGACGGGCGATTGACAGCGTAGAATGAAGG
DNA 2: CCTTCATTCTACGCTGTCAATCGCCCGTCATCTCTTCATTGACCTTTGACCTTGGACGGC
On to B3, for which the binding signal in data set [5] is 7.29 PBM z-score against 500 random probes; in data set [6] it was 9.11 PBM z-score against 500 random probes; in data set [4] it was 7.52 PBM z-score against 500 random probes; in data set [7], 10.7 PBM z-score against 500 random probes; in data set [2], 5.12 PBM z-score against 500 random probes.

B4: NRC3_random_hg19_217_o1 (dsDNA)
DNA 1: GCCTCAAACTCCCTTCTTCAGTTTCTGGTAGATCAAGCGATTGACAGCGTAGAATGAAGG
DNA 2: CCTTCATTCTACGCTGTCAATCGCTTGATCTACCAGAAACTGAAGAAGGGAGTTTGAGGC
In the case of B4, the binding signal in data set [8] was -0.02 PBM z-score against 500 random probes; in data set [1], 0.47 PBM z-score against 500 random probes; in data set [2], -0.02 PBM z-score against 500 random probes.

B5: NRC3_wobSeed114_DR4_G17T_o1 (dsDNA)
DNA 1: GCAATACAGGGTCATCTTAGGCCAGAGTACGCACAGGCGATTGACAGCGTAGAATGAAGG
DNA 2: CCTTCATTCTACGCTGTCAATCGCCTGTGCGTACTCTGGCCTAAGATGACCCTGTATTGC
As to B5, the figures for the binding signal in data set [1] and in data set [2] were 7.35 PBM z-score against 500 random probes and 5.49 PBM z-score against 500 random probes, respectively.

B6: NRC3_wobSeed88_DR3_G11T_o1 (dsDNA)
DNA 1: GCTAGCCTAGTTCATGCGGGCCAGTATAGTGTCGGCGCGATTGACAGCGTAGAATGAAGG
DNA 2: CCTTCATTCTACGCTGTCAATCGCGCCGACACTATACTGGCCCGCATGAACTAGGCTAGC
With B6, the binding signal in data set [6] is 0.41 PBM z-score against 500 random probes; in data set [1], 0.09 PBM z-score against 500 random probes; in data set [2], 0.14 PBM z-score against 500 random probes.

B7: NRC3_wobSeed109_DR4_G17T_o1 (dsDNA)
DNA 1: GCCGTCCAAGGTCATATGAGGTCAGTGAAGACAGATGCGATTGACAGCGTAGAATGAAGG
DNA 2: CCTTCATTCTACGCTGTCAATCGCATCTGTCTTCACTGACCTCATATGACCTTGGACGGC
As to B7, the binding signal in data set [1] is 7.97 PBM z-score against 500 random probes; in data set [2], 5.58 PBM z-score against 500 random probes.

B8: NRC3_random_hg19_346_o1 (dsDNA)
DNA 1: GCGCCTTCTGCTACAGGGCAAAGGTGGCACACAAAGGCGATTGACAGCGTAGAATGAAGG
DNA 2: CCTTCATTCTACGCTGTCAATCGCCTTTGTGTGCCACCTTTGCCCTGTAGCAGAAGGCGC
For the molecule B8, the binding signal was 0 PBM z-score against 500 random probes in data set [1] and 0.22 PBM z-score against 500 random probes in data set [2].

B9: NRC3_wobSeed136_DR5_C24A_o1 (dsDNA)
DNA 1: GCTAGCCTAGGTCATTCAGGGGCAAGTATAGAAAGCGCGATTGACAGCGTAGAATGAAGG
DNA 2: CCTTCATTCTACGCTGTCAATCGCGCTTTCTATACTTGCCCCTGAATGACCTAGGCTAGC
In the case of B9, the binding signal was 4.49 PBM z-score against 500 random probes in data set [6], 6.65 PBM z-score against 500 random probes in data set [1] and 5.06 PBM z-score against 500 random probes in data set [2].

B10: NRC3_wobSeed113_DR4_G15C_o1 (dsDNA)
DNA 1: GCATATGTAGGTTACCTGGGGTCATTCAGACTAGGCGCGATTGACAGCGTAGAATGAAGG
DNA 2: CCTTCATTCTACGCTGTCAATCGCGCCTAGTCTGAATGACCCCAGGTAACCTACATATGC
Turning to B10, the binding signal in data set [5] is 8.08 PBM z-score against 500 random probes; in data set [1], 8.75 PBM z-score against 500 random probes; in data set [2], 5.46 PBM z-score against 500 random probes.

These data come from publication PMC6555819, “Comprehensive study of nuclear receptor DNA binding provides a revised framework for understanding receptor specificity”.
